Reference: the supplement of paper PMC9112550, “Optimization of the antimicrobial peptide Bac7 by deep mutational scanning” (BMC Biology, 2022)

Test system: Escherichia coli TOP10
Assay: shrunken log2 fold change of peptide-encoding DNA abundance (4.5 h post-induction vs induction); higher = less antimicrobial activity (less host growth inhibition)
Conditions: time post-induction: 4.5 h; library: site-saturation at positions 5, 18, 19, 20
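Also: peptides expressed intracellularly from a pBAD plasmid library in pooled LB shake-flask culture, induced with 0.3% L-arabinose, DNA abundance read by NGS, three biological replicates, DESeq2 with apeglm shrinkage.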

Row | Sequence | shrunken log2 fold change
1 | RRIRHRPPRLPRPRPRPMLYPRP | -1.49
2 | RRIRARPPRLPRPRPRPLDAPRP | 0.746
3 | RRIRARPPRLPRPRPRPTAPPRP | 0.8
4 | RRIRSRPPRLPRPRPRPHIPPRP | -0.836
5 | RRIRWRPPRLPRPRPRPPNMPRP | 0.0854
6 | RRIRVRPPRLPRPRPRPLILPRP | -0.409
7 | RRIRLRPPRLPRPRPRPLFVPRP | -0.329
8 | RRIRTRPPRLPRPRPRPQYDPRP | -0.0819
9 | RRIRWRPPRLPRPRPRPIGAPRP | 0.0619
10 | RRIRARPPRLPRPRPRPVRWPRP | 0.88
11 | RRIRFRPPRLPRPRPRPEGVPRP | -0.175
12 | RRIRRRPPRLPRPRPRPVLCPRP | 0.569
13 | RRIRQRPPRLPRPRPRPPIPPRP | -0.0174
14 | RRIRFRPPRLPRPRPRPGAWPRP | -0.15
15 | RRIRGRPPRLPRPRPRPEYDPRP | 0.0795
16 | RRIRQRPPRLPRPRPRPWAPPRP | 0.0985
17 | RRIRIRPPRLPRPRPRPYDMPRP | -0.19
18 | RRIRMRPPRLPRPRPRPATWPRP | 0.515
19 | RRIRNRPPRLPRPRPRPKNSPRP | -0.161
20 | RRIRERPPRLPRPRPRPDHTPRP | -0.0309
21 | RRIRFRPPRLPRPRPRPCQLPRP | -0.938
22 | RRIRWRPPRLPRPRPRPMYQPRP | -0.0254
23 | RRIRQRPPRLPRPRPRPENEPRP | 0.0608
24 | RRIRPRPPRLPRPRPRPANDPRP | -0.155
25 | RRIRERPPRLPRPRPRPRNWPRP | -0.0255

Row | Sequence | shrunken log2 fold change
26 | RRIRLRPPRLPRPRPRPKMDPRP | -0.428
27 | RRIRCRPPRLPRPRPRPAFWPRP | 0.232
28 | RRIRNRPPRLPRPRPRPVFRPRP | -0.165
29 | RRIRSRPPRLPRPRPRPFPPPRP | -0.0275
30 | RRIRDRPPRLPRPRPRPAQKPRP | 0.0225
31 | RRIRHRPPRLPRPRPRPMAVPRP | 0.159
32 | RRIRQRPPRLPRPRPRPNPWPRP | 0.0932
33 | RRIRIRPPRLPRPRPRPQSNPRP | -0.197
34 | RRIRERPPRLPRPRPRPRTMPRP | -0.135
35 | RRIRHRPPRLPRPRPRPGEMPRP | 0.257
36 | RRIRNRPPRLPRPRPRPLIRPRP | -0.0892
37 | RRIRARPPRLPRPRPRPVQTPRP | 0.264
38 | RRIRVRPPRLPRPRPRPMTFPRP | -0.0219
39 | RRIRFRPPRLPRPRPRPVFGPRP | -0.17
40 | RRIRHRPPRLPRPRPRPYMAPRP | -0.339
41 | RRIRWRPPRLPRPRPRPQCIPRP | -0.0652
42 | RRIRDRPPRLPRPRPRPDIHPRP | -0.0156
43 | RRIRPRPPRLPRPRPRPYEGPRP | -0.0988
44 | RRIRYRPPRLPRPRPRPYHNPRP | -0.525
45 | RRIRGRPPRLPRPRPRPCGQPRP | 0.142
46 | RRIRMRPPRLPRPRPRPPKAPRP | 1.02
47 | RRIRHRPPRLPRPRPRPPHLPRP | 0.0576
48 | RRIRRRPPRLPRPRPRPKTFPRP | -0.0358
49 | RRIRIRPPRLPRPRPRPCKPPRP | -0.19
50 | RRIRCRPPRLPRPRPRPMEHPRP | -0.0605

Row | Sequence | shrunken log2 fold change
51 | RRIRTRPPRLPRPRPRPCICPRP | -0.119
52 | RRIRTRPPRLPRPRPRPTSMPRP | 0.308
53 | RRIRGRPPRLPRPRPRPAPLPRP | 0.893
54 | RRIRGRPPRLPRPRPRPEYNPRP | 0.643
55 | RRIRNRPPRLPRPRPRPELLPRP | 0.0274
56 | RRIRWRPPRLPRPRPRPNHNPRP | -0.681
57 | RRIRRRPPRLPRPRPRPAKCPRP | 0.0405
58 | RRIRERPPRLPRPRPRPQFEPRP | -0.0369
59 | RRIRRRPPRLPRPRPRPSHEPRP | -0.252
60 | RRIRSRPPRLPRPRPRPGHHPRP | -0.0988
61 | RRIRTRPPRLPRPRPRPSRYPRP | -0.23
62 | RRIRLRPPRLPRPRPRPRNIPRP | -0.424
63 | RRIRWRPPRLPRPRPRPFGGPRP | 0.0764
64 | RRIRKRPPRLPRPRPRPNCLPRP | -0.0339
65 | RRIRLRPPRLPRPRPRPQNEPRP | -0.459
66 | RRIRMRPPRLPRPRPRPIPSPRP | 0.0101
67 | RRIRCRPPRLPRPRPRPHNGPRP | -1.03
68 | RRIRTRPPRLPRPRPRPAAIPRP | 0.163
69 | RRIRIRPPRLPRPRPRPIFWPRP | 0.397
70 | RRIRLRPPRLPRPRPRPFDSPRP | -0.174
71 | RRIRYRPPRLPRPRPRPLWLPRP | 0.0113
72 | RRIRRRPPRLPRPRPRPRTSPRP | 0.108
73 | RRIRGRPPRLPRPRPRPGLTPRP | 1.09
74 | RRIRGRPPRLPRPRPRPPHFPRP | 0.67
75 | RRIRHRPPRLPRPRPRPHYCPRP | -0.0453

Row | Sequence | shrunken log2 fold change
76 | RRIRMRPPRLPRPRPRPFTAPRP | 0.245
77 | RRIRARPPRLPRPRPRPTNEPRP | 0.344
78 | RRIRGRPPRLPRPRPRPGKHPRP | 0.384
79 | RRIRRRPPRLPRPRPRPEMCPRP | 0.11
80 | RRIRSRPPRLPRPRPRPMKHPRP | -0.212
81 | RRIRGRPPRLPRPRPRPNFIPRP | -0.00471
82 | RRIRERPPRLPRPRPRPNYYPRP | -0.893
83 | RRIRIRPPRLPRPRPRPDNEPRP | -0.117
84 | RRIRGRPPRLPRPRPRPCPYPRP | 0.0633
85 | RRIRTRPPRLPRPRPRPCGLPRP | 0.165
86 | RRIRARPPRLPRPRPRPKQYPRP | -0.0335
87 | RRIRFRPPRLPRPRPRPCSMPRP | -0.343
88 | RRIRCRPPRLPRPRPRPYCYPRP | -0.669
89 | RRIRLRPPRLPRPRPRPNTAPRP | -0.248
90 | RRIRVRPPRLPRPRPRPYASPRP | 0.00213
91 | RRIRNRPPRLPRPRPRPKGYPRP | -0.0233
92 | RRIRRRPPRLPRPRPRPRIWPRP | 0.666
93 | RRIRKRPPRLPRPRPRPLDGPRP | 0.105
94 | RRIRVRPPRLPRPRPRPWGHPRP | 0.0373
95 | RRIRYRPPRLPRPRPRPNQDPRP | -0.406
96 | RRIRQRPPRLPRPRPRPLEPPRP | -0.227
97 | RRIRIRPPRLPRPRPRPQGNPRP | -0.304
98 | RRIRVRPPRLPRPRPRPPMCPRP | 0.0598
99 | RRIRNRPPRLPRPRPRPIKGPRP | -0.104
100 | RRIRWRPPRLPRPRPRPPYYPRP | -0.183

Row | Sequence | shrunken log2 fold change
101 | RRIRCRPPRLPRPRPRPDAWPRP | 0.141
102 | RRIRDRPPRLPRPRPRPYCHPRP | -0.121
103 | RRIRCRPPRLPRPRPRPPNHPRP | -0.104
104 | RRIRTRPPRLPRPRPRPCVNPRP | -0.0913
105 | RRIRGRPPRLPRPRPRPCYSPRP | -0.0391
106 | RRIRTRPPRLPRPRPRPDMAPRP | -0.0628
107 | RRIRTRPPRLPRPRPRPHTPPRP | 0.0178
108 | RRIRCRPPRLPRPRPRPKDQPRP | -0.0507
109 | RRIRWRPPRLPRPRPRPCQRPRP | 1.03
110 | RRIRMRPPRLPRPRPRPILPPRP | 0.0577
111 | RRIRYRPPRLPRPRPRPCVNPRP | -0.177
112 | RRIRDRPPRLPRPRPRPRWWPRP | 0.0238
113 | RRIRWRPPRLPRPRPRPSEPPRP | -0.266
114 | RRIRTRPPRLPRPRPRPPWLPRP | 0.547
115 | RRIRTRPPRLPRPRPRPLIKPRP | -1.06
116 | RRIRARPPRLPRPRPRPKQCPRP | 0.123
117 | RRIRIRPPRLPRPRPRPPDKPRP | -0.0243
118 | RRIRHRPPRLPRPRPRPAPEPRP | 0.0106
119 | RRIRGRPPRLPRPRPRPWENPRP | 1.02
120 | RRIRRRPPRLPRPRPRPICKPRP | 0.0422
121 | RRIRKRPPRLPRPRPRPSQEPRP | -0.0223
122 | RRIRLRPPRLPRPRPRPEKIPRP | -0.223
123 | RRIRERPPRLPRPRPRPARKPRP | 0.00472
124 | RRIRLRPPRLPRPRPRPWKLPRP | -0.00968
125 | RRIRIRPPRLPRPRPRPMGWPRP | 0.237

Row | Sequence | shrunken log2 fold change
126 | RRIRLRPPRLPRPRPRPELWPRP | 0.626
127 | RRIRVRPPRLPRPRPRPGPAPRP | 0.407
128 | RRIRRRPPRLPRPRPRPNIHPRP | 0.564
129 | RRIRLRPPRLPRPRPRPNGQPRP | 0.00827
130 | RRIRIRPPRLPRPRPRPDEFPRP | 0.0764
131 | RRIRNRPPRLPRPRPRPQDPPRP | -0.296
132 | RRIRRRPPRLPRPRPRPQYLPRP | -0.0489
133 | RRIRNRPPRLPRPRPRPQYRPRP | 0.576
134 | RRIRWRPPRLPRPRPRPWDDPRP | -0.236
135 | RRIRSRPPRLPRPRPRPQYRPRP | -0.234
136 | RRIRSRPPRLPRPRPRPAEHPRP | 0.0851
137 | RRIRFRPPRLPRPRPRPSKKPRP | 0.0524
138 | RRIRIRPPRLPRPRPRPENVPRP | 0.267
139 | RRIRYRPPRLPRPRPRPFLTPRP | -0.871
140 | RRIRSRPPRLPRPRPRPGHSPRP | 0.0297
141 | RRIRGRPPRLPRPRPRPPKKPRP | 1.03
142 | RRIRRRPPRLPRPRPRPAMEPRP | 0.019
143 | RRIRQRPPRLPRPRPRPFKAPRP | -0.059
144 | RRIRIRPPRLPRPRPRPCDVPRP | -0.124
145 | RRIRNRPPRLPRPRPRPIIHPRP | -0.712
146 | RRIRLRPPRLPRPRPRPHTTPRP | -0.368
147 | RRIRDRPPRLPRPRPRPRAIPRP | 0.108
148 | RRIRMRPPRLPRPRPRPAAKPRP | 1.26
149 | RRIRLRPPRLPRPRPRPYWGPRP | -0.304
150 | RRIRERPPRLPRPRPRPAKFPRP | 0.112
